The values below come from US20240083996A1, “COMPOSITION FOR PROPHYLAXIS OR TREATMENT OF IL-8 RELATED DISEASES” (Chugai Seiyaku Kabushiki Kaisha, priority 2016, published 2024).

The test concerns endometriosis nodular lesions and adhesion. The format is in vivo, cynomolgus monkeys. The source says:
Female cynomolgus monkeys of 8 to 14 years of age with regular sexual cycle (provided by the Tsukuba Primate Research Center at the National Institutes of Biomedical Innovation, Health and Nutrition) were laparotomized under anesthesia during the period corresponding to the luteal phase. The uterine corpus was removed by dissecting in a V shape. Then, the uterine corpus was cut into 5 to 10 mm cubes while leaving the smooth muscle layer of the uterus, and one and two pieces were transplanted onto the right abdominal wall and left abdominal wall (cranial and caudal sides), respectively, in such a manner that the endometrium part is in contact with the peritoneum by suturing with an absorbable suture and formed the transplant. After excision, the uterus was sutured with absorbable suture. Then, the remaining endometrial tissues were finely cut and suspended in 5 ml of 2 ng/ml Hepatocyte Growth Factor solution (R&D systems), and this was seeded in the peritoneal cavity for transplantation, followed by closure of the abdomen. Anesthesia was performed using balanced anesthesia of ketamine/xylazine (mixed at an adequate ratio of about 2:1); however, anesthesia was maintained with isoflurane depending on the maintenance period of anesthesia. The body temperature was maintained and controlled during surgery using a heating pad and the condition was monitored electrocardiographically. The antagonist Antisedan (at roughly the same amount as that of xylazine) and antibiotic cephradine were administered at the time of awakening after surgery. The pain reliever Zalban was administered for two days after surgery, and the monkeys were observed regularly every day to confirm the absence of post-surgical abnormalities. In laparoscopic observation, anesthesia and post-surgical monitoring were also performed in the same way.
Laparoscopic observation was carried out four months, nine months (3 months after administration), and 12 months (6 months after administration) following the surgical induction of endometriosis described above, and the pathological conditions of endometriosis were assessed as follows.
The abdomen was incised in the median line under anesthesia, and laparoscopic observation was performed by inserting a trocar and then introducing a laparoscope. The laparoscope was connected to a video system (KARL STORZ) and a monitor. The monitor was used for intraperitoneal observation, and the video system was used for recording. Then, the peritoneal cavity was filled with carbon dioxide gas using Intra-abdominal Insufflation Unit (OLYMPUS) to expand the abdomen, and graduated bars and forceps were inserted from the ventral portion. The size of the lesion was measured using the graduated bar or graduated forceps.
The sizes (width, height, and depth) of nodular lesions formed by suturing the endometrial tissues were measured and the volumes were calculated based on: width (mm)×height (mm)×depth (mm). The lesions and adhesion formed by seeding endometrial tissues after fine cutting were assessed for the site, area, and depth of adhesion and the size of lesion by laparoscopic observation based on modified r-AFS score modified for monkeys from the r-AFS score for clinical use. […] The item on adhesion to the vesicouterine pouch was added, because in the monkey model, the frequency of adhesion to the urinary bladder is higher than in humans. The method for assessing adhesion to the urinary bladder was the same scoring as that used for adhesion to the Douglas' pouch. • 2. Since monkey's body and organ sizes are smaller than those of humans, the criteria of lesion size scoring were altered to: <3 mm, 3-10 mm, and >10 mm.
Based on the results of laparoscopic observation four months after induction, the individuals that met the criteria were selected and grouped. The criteria for the selection are as follows: • 1. Engraftment of endometrial transplant confirmed on the laparoscopic observation four months after induction. • 2. […]

Where [1] appears, read: 10 mg/kg i.v. q4w, six months of administration.
[2] abbreviates: Table 26, proliferation lesion, per nodular lesion (animals 112, 105, 106, 121, 119, 123; sites R, L1, L2), 10 mg/kg.

B1: H1009/L395-F1974m: H1009-F1974m (SEQ ID NO:36) heavy chain, L395-kOMT light chain; the anti-IL-8 antibody of Table 29 (antibody)
heavy: QVQLVESGGGLVQPGGSLRLSCAASGFTFSDYYLSWVRQAPGKGLEWVGLIRNKDNYHTPEYSASVKGRFTISRDDSKNSLYLTMSDLKTEDTAVYYCARENHRYDVELAYWGQGTLVTVSSASTKGPSVFPLAPSSKSTSGGTAALGCLVKDYFPEPVTVSWNSGALTSGVHTFPAVLQSSGLYSLSSVVTVPSSSLGTQTYICNVNHKPSNTKVDKKVEPKSCDKTHTCPPCPAPELRRGPSVFLFPPKPKDTLMISRTPEVTCVVVDVSHEDPEVKFNWYVDGVEVHNAKTKPREEQYNSTYRVVSVLTVLHQDWLNGKEYKCKVSNKGLPSSIEKTISKAKGQPREPQVYTLPPSREEMTKNQVSLTCLVKGFYPSDIAVEWESNGQPENNYKTTPPVLDSDGSFFLYSKLTVDKSRWQQGNVFSCSVLHEALHAHTTRKELSLSP
light: DIQMTQSPSSLSASVGDRVTITCRASEIIYSYLAWYQQKPGKAPKLLIYKAKTHADGVPSRFSGSGSGTDFTFTISSLQPEDIATYYCKHHFGFPRTFGQGTKVEIKRTVAAPSVFIFPPSDEQLKSGTASVVCLLNNFYPREAKVQWKVDNALQSGNSQESVTEQDSKDSTYSLSSTLTLSKADYEKHKVYACEVTHQGLSSPVTKSFNRGEC
On to B1, for which, under setting [1], the “frequency of nodular lesions of type A: proliferative, ≥500 mm3” value is 0%; the “frequency of nodular lesions of type B: proliferative, <500 mm^3” value was 8%; the “frequency of nodular lesions of type C: no change” value came out at 33%; the “frequency of nodular lesions of type D: decreased” value amounted to 58%. Under setting [1], the “number of nodular lesions of type A: proliferative, ≥500 mm3 / lesions analysed” value is listed as “(0/12)”; the “number of nodular lesions of type B: proliferative, <500 mm^3 / lesions analysed” value is “(1/12)”; the “number of nodular lesions of type C: no change / lesions analysed” value is on record as “(4/12)”; the “number of nodular lesions of type D: decreased / lesions analysed” value was 7/12 and (7/12). Moreover, under setting [2], the “Atrophy/decrease, stromal cell (P)” value is “±” and the “Decreased insterstitium (P)” value is “±”. Besides, the “change of size r-AFS score” value (after minus before administration, versus vehicle group (FIG. 35-1)) is listed as “tended to decrease”. For the same molecule, the “change of total r-AFS score” value (after minus before administration, versus vehicle group, p=0.0070 (FIG. 35-1)) is “clearly decreased as compared to the vehicle group”. Further, the “change of adhesion score” value (after minus before administration, versus vehicle group, p=0.0096 (FIG. 35-1)) was “clearly decreased as compared to the vehicle group”. Also, the “frequency of deep lesions (endometriosis gland ducts invaded up to the muscle layer of abdominal wall)” value (anti-antibody-positive individuals excluded, vehicle group 5/18 lesions) is listed as 1/11. For the same molecule, the muscle tissue regeneration entry (autopsy) is given as “muscle tissue regeneration, which was not seen in the vehicle group, was observed”. In addition, the “histopathology of the grafts and grafted sites (HE staining)” value (autopsy after final laparoscopic observation, compared to the vehicle group) was “atrophic changes of proliferative epithelia and stromal cells as well as reduction of the interstitium whose major component is collagenous fibers was observed”. In addition, the “number of lesions with hemosiderin / lesions” value (autopsy, vehicle group 9/16) is reported as 4/17. Besides, the “frequency of lesions with hemosiderin” value (autopsy, vehicle group 56%) is 24%. Besides, the “total modified r-AFS score before and after administration” value (scores recorded during laparoscopic surgery, Wilcoxon's signed-rank-sum test, P=0.875 (FIG. 35-2)) was “the score did not change”.
